The record followed here is patent US20190211082A1.

Assay [1] addresses Fab fragment (IgG-Fab) derived from anti-IgE monoclonal antibody Omalizumab ("Xolair" manufactured by Novartis AG), made by papain digestion. Nature of the assay: affinity chromatography, 1 mg Fab on 1 mL column, linear pH gradient 5.0 to 2.4 in 100 mM citrate buffer, pH at elution peak top, 25 °C.
For assay [2] the target is unchanged. Nature of the assay: affinity chromatography, 1 mg Fab on 1 mL column, linear pH gradient 5.0 to 3.0 in 100 mM acetate buffer, pH at elution peak top, 25 °C.
Assay [3] addresses humanized monoclonal IgG (anti-IgE monoclonal antibody, "Xolair" manufactured by Novartis AG; generic name Omalizumab). Nature of the assay: affinity chromatography, 1 mg IgG on 1 mL column, linear pH gradient 5.0 to 2.4 in 100 mM citrate buffer, pH at elution position.
The target is the same in assay [4]. Nature of the assay: affinity chromatography, 1 mg IgG on 1 mL column, linear pH gradient 5.0 to 3.0 in 100 mM acetate buffer, pH at elution position.

The substance “VL-κ-binding peptide of Experimental product A: 4 VL-κ-binding domains (SEQ ID NO: 2) of wild Protein L of Peptostreptococcus magnus 312 strain bound through the peptides that connect domains in SEQ ID NO: 1, with an active group for immobilization at the C-terminal (designed binder)” displayed an Antibody elution pH (100 mM citrate buffer) in assay [1] of 2.71 pH. In assay [2], this substance showed an Antibody elution pH (100 mM acetate buffer) of 3.47 pH.

Substance “Protein A ligand of the commercially available Protein A carrier "HiTrap MabSelect SuRe" manufactured by GE Healthcare” returned an Antibody elution pH (100 mM citrate buffer) in assay [3] of 3.53 pH. In assay [4], the Antibody elution pH (100 mM acetate buffer) was 3.64 pH.

In the case of “Protein L ligand of the commercially available affinity separation matrix "HiTrap Protein L 1 mL-gel" manufactured by GE Healthcare”, the Antibody elution pH (100 mM citrate buffer) in assay [1] was 2.93 pH. In assay [2], this substance showed an Antibody elution pH (100 mM acetate buffer) of 3.6 pH.
